Measurements published in PMC10053787, “A New Gene SCY3 Homologous to Scygonadin Showing Antibacterial Activity and a Potential Role in the Sperm Acrosome Reaction of Scylla paramamosain” (International Journal of Molecular Sciences, 2023).

Key:
rSCY5 = molecular target: T1, rSCY5; test: biolayer interferometry (Octet); type: binding, Scylla paramamosain; conditions: biotinylated protein on Super Streptavidin sensor; progesterone 0.125-4 mM; phosphate-saline buffer pH 7.4, 0.02% Tween 20; room temperature
T1 construct: gene SCY5; biotinylated for BLI

rSCY3 = molecular target: T2, rSCY3 (Scylla paramamosain, UniProt A0AAW0UC28); test: biolayer interferometry (Octet); type: binding; conditions: biotinylated protein on Super Streptavidin sensor; progesterone 0.125-4 mM; phosphate-saline buffer pH 7.4, 0.02% Tween 20; room temperature
T2 construct: gene O3P69_004699; precursor printed as 124 aa; biotinylated for BLI
T2 sequence (A0AAW0UC28 11-110): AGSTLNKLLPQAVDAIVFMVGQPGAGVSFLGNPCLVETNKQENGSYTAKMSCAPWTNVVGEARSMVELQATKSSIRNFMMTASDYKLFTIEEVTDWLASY

rSCY4 = molecular target: T3, rSCY4; test: biolayer interferometry (Octet); type: binding, Scylla paramamosain; conditions: biotinylated protein on Super Streptavidin sensor; progesterone 0.125-4 mM; phosphate-saline buffer pH 7.4, 0.02% Tween 20; room temperature
T3 construct: gene SCY4; biotinylated for BLI

[1] = molecular target: Recombinant His-tagged SCY1 (Scylla paramamosain); test: SPR; Biacore T200, CM5 chip; rSCY1-4 immobilised (~200 resonance units), blank or rTrx reference cell; rSCY1-5 diluted in PBS and injected (28.8 to 0.45 µM), multiple cycle kinetics, 25 °C, 120-s association and 120-s dissociation
[2] = molecular target: Recombinant His-tagged SCY2 (Scylla paramamosain); test: as above

Compound	Kd [1]	Kd [2]	Kd (rSCY5)	Kd (rSCY3)	Kd (rSCY4)
CC(=O)[C@H]1CC[C@H]2[C@@H]3CCC4=CC(=O)CC[C@]4(C)[C@H]3CC[C@]12C [progesterone]	–	–	25300 µM	30800 µM	2280 µM
Recombinant His-tagged SCY2 (natural protein)	11.3 µM	–	–	–	–
Recombinant His-tagged SCY4 (natural protein)	6.86 µM	14 µM	–	–	–

Second part, led by results:

Kd [1]	Kd [2]	Compound	Kd (rSCY5)	Kd (rSCY3)	Kd (rSCY4)
0.14 µM	0.15 µM	Recombinant Trx-tagged SCY5 (natural protein)	–	–	–
4.12 µM	0.62 µM	Recombinant His-tagged SCY3 (natural protein)	–	–	–
